# From paper PMC7934871 (JCI Insight, 2021)
# How the values were obtained:
# [1] = tested on: HCT116 cells; assay type: cell-based, human
# Experimental: Bis-(1,3-Dibutylbarbituric Acid) Trimethine Oxonol [DiBAC4(3)]
# Supplemental Figure 3 (related to Figure 1). The potential mechanism of PS-oligo
# mediated cell penetration.
# penetration was assessed by flow cytometry. SD is shown. Unpaired student t-test. ****
# P< 0.001. Data shown is the representative of 3 independent experiments.
# (B) HCT116 cells were pre-treated with a variety of endocytosis inhibitors prior to
# treating with FAM-labeled PS-acet.-STAT3 peptide. The graph represents the statistical
# analysis of the fluorescence intensity (M.F.I) of FAM-labeled peptide shown in A. SD is
# shown. n= 5 independent experiments. Unpaired student t-test. **** P< 0.001.
# (C) Polarization of cell membrane contributes to penetration of PS-acet.-STAT3
# peptide. Cell membrane was depolarized by adding 120 mM KCl to HCT116 for 2.5 h,
# followed by incubation with the peptide (upper panel). Data is representative of 4
# independent experiments. Depolarization of the cell membrane was confirmed by
# applying 2.5 mM DiBAC4(3) to other cells (lower panel). n= 3 independent experiments.
# Penetration was assessed by flow cytometry. The right panels show the mean of
# fluorescence intensity (M.F.I) quantified by FlowJo software. SD is shown. Unpaired
# student t-test. *, P<0.05; *** P< 0.005.
# Aftabizadeh and Li et al., Figure S3
# [2] = tested on: HCT116 xenograft tumors; assay: HCT116 xenograft, monomer versus dimerized peptide, peritumoral; assay type: in vivo, mouse; conditions: HCT116 s.c. in NSG mice, peritumoral injection, monomer or dimerized, n = 5
# From the text: Figure 5 Dimerized PS-acet.-STAT3 peptide has improved antitumor functions. (A) The enhanced antitumor effect of the dimerized PS-acet.-STAT3 peptide is shown in HCT116 tumors grown in NSG mice (n = 5). Two-way ANOVA (Tukey’s multiple comparisons test) was used for analyzing the kinetics of tumor growth over the treatment period; ****P < 0.001; *P < 0.05. (B) The dimerized PS-acet.-STAT3 peptide downregulates pY705-STAT3 more effectively, as analyzed by immunoprecipitation and Western blotting with tumor homogenates from the tumors in A. hc, heavy chain of antibody. […] (D) quantitative real-time RT-PCR showing mRNA levels of STAT3-regulated proapoptotic and prosurvival genes in HCT116 tumor tissues treated with the indicated STAT3 peptides in A. n = 3 independent quantitative real-time RT-PCR experiments. […] Right panels show the quantified Ki-67 protein levels as well as mean of vessel diameter (data include 5 fields of view per group). […]
# Mouse care and experimental procedures were performed under pathogen-free conditions in accordance with established institutional guidance and approved IACUC protocols from Research Animal Care Committee of the City of Hope. […] Tumor growth was measured by a digital caliper every other day. […] Lungs were then analyzed for immune responses by immunostaining followed by confocal imaging. […] Tumor growth was measured by a digital caliper every other day. […]
substance,measurement,setting,value
PDIPKEEAFGK685(Ac)YCRPESQEHPC-linker-T*C*C*A*T*G*A*G*C*T*T*C*C*T*G*A*T*G*C*T [PS-acet.-STAT3 peptide],peptide penetration in presence of dextran sulfate,[1],partially
same,tumor growth,[2],significantly reduced
